Measurements as given in the supplement of paper PMC10724198.
± gives the standard deviation of the averaged measurements.

Experiments:
Saccharomyces cerevisiae [1] = test: protein stability index of tFT-peptide fusion (C-terminal peptide) (PSI (0-1 scale)); higher = more stable (slower turnover); settings: genetic background: wild type; temperature: 30 C
Saccharomyces cerevisiae [2] = test: as above
Method: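 MPS profiling in S. cerevisiae of the tFT-X12 degron library: putative degron peptides plus stable controls, 12 aa, fused to the C-terminus of a sfGFP-mCherry timer. Cells are FACS-sorted into 8 mCherry/sfGFP bins and deep-sequenced. PSI runs from 0 (unstable) to 1 (stable). Backgrounds are wild type, das1Δ and doa10Δ at 30 °C, and wild type, das1Δ, cdc34-1 and cdc53-1 at 37 °C; 2-3 technical replicates each.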

[3] = genetic background: cdc34-1, temperature: 37 C
[4] = genetic background: cdc53-1, temperature: 37 C
[5] = genetic background: das1 deletion, temperature: 30 C
[6] = genetic background: das1 deletion, temperature: 37 C
[7] = genetic background: doa10 deletion, temperature: 30 C
[8] = genetic background: wild type, temperature: 30 C
[9] = genetic background: wild type, temperature: 37 C
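Also: PSI is a weighted mean of sequencing reads over stability bins, variants kept only with over 10 reads, mCherry proximal and sfGFP distal, peptide attached via GGGS linker.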

Sequence	protein stability index (Saccharomyces cerevisiae [1])	protein stability index (Saccharomyces cerevisiae [2]; [3])	protein stability index (Saccharomyces cerevisiae [2]; [4])	protein stability index (Saccharomyces cerevisiae [2]; [5])	protein stability index (Saccharomyces cerevisiae [2]; [6])	protein stability index (Saccharomyces cerevisiae [2]; [7])	protein stability index (Saccharomyces cerevisiae [2]; [8])	protein stability index (Saccharomyces cerevisiae [2]; [9])
FCIFAMQICTSA	0.18 ± 0.017	0.126 ± 0.013	0.173 ± 0.0037	0.112 ± 0.033	0.221 ± 0.0074	0.084 ± 0.015	0.108 ± 0.01	0.205 ± 0.015
FCSPFFFFLFRL	0.4182 ± 0.00048	0.283 ± 0.072	0.241 ± 0.032	0.357 ± 0.028	0.4269 ± 0.003	0.469 ± 0.0056	0.315 ± 0.031	0.361 ± 0.03
FFFLPLFLVLSL	0.363 ± 0.0047	0.239 ± 0.01	0.158 ± 0.034	0.29 ± 0.025	0.378 ± 0.0094	0.486 ± 0.03	0.29 ± 0.03	0.329 ± 0.0071
FFGFYLKFVWCG	0.21 ± 0.019	0.431 ± 0.062	0.4683 ± 0.0021	0.391 ± 0.024	0.516 ± 0.0079	0.146 ± 0.015	0.152 ± 0.019	0.258 ± 0.025
FFPSFGLFLCPV	0.409 ± 0.027	0.431 ± 0.01	0.471 ± 0.0067	0.366 ± 0.036	0.5001 ± 0.0015	0.381 ± 0.013	0.357 ± 0.031	0.4685 ± 0.0018
FFSRIIAILVLM	0.23 ± 0.031	0.37 ± 0.071	0.453 ± 0.014	0.337 ± 0.024	0.515 ± 0.016	0.135 ± 0.011	0.144 ± 0.0086	0.192 ± 0.035
FFVEKRVFFGII	0.369 ± 0.009	0.604 ± 0.017	0.733 ± 0.015	0.593 ± 0.026	0.738 ± 0.029	0.197 ± 0.013	0.242 ± 0.015	0.408 ± 0.018
FFVMVFTVEVFV	0.194 ± 0.02	0.0407 ± 0.015	0.0863 ± 0.019	0.0929 ± 0.015	0.167 ± 0.01	0.0639 ± 0.011	0.0875 ± 0.015	0.132 ± 0.0075
FFVWLGWGMFYG	0.528 ± 0.054	0.547 ± 0.034	0.575 ± 0.015	0.425 ± 0.025	0.561 ± 0.0085	0.408 ± 0.0042	0.437 ± 0.013	0.6044 ± 0.0019
FGALVVCFLTRC	0.374 ± 0.026	0.426 ± 0.039	0.511 ± 0.056	0.342 ± 0.027	0.519 ± 0.007	0.289 ± 0.02	0.302 ± 0.04	0.481 ± 0.027
FGGFYGRRVLII	0.327 ± 0.04	0.62024 ± 0.00039	0.682 ± 0.0097	0.544 ± 0.023	0.6748 ± 0.0054	0.182 ± 0.0081	0.209 ± 0.0024	0.437 ± 0.0092
FGGYLRAGVFLT	0.473 ± 0.11	0.643 ± 0.032	0.6969 ± 0.0015	0.645 ± 0.027	0.721 ± 0.0034	0.388 ± 0.039	0.387 ± 0.043	0.586 ± 0.016
FGPVLLVSFLFS	0.35 ± 0.014	0.273 ± 0.024	0.386 ± 0.033	0.242 ± 0.031	0.422 ± 0.027	0.19 ± 0.016	0.235 ± 0.054	0.4008 ± 0.0017
FGVRRSFVVFVV	0.191 ± 0.023	0.3827 ± 0.00079	0.456 ± 0.011	0.337 ± 0.033	0.556 ± 0.0058	0.0834 ± 0.011	0.0934 ± 0.015	0.107 ± 0.014
FHLFIRRSAVIF	0.439 ± 0.025	0.493 ± 0.023	0.576 ± 0.0062	0.455 ± 0.017	0.555 ± 0.023	0.3488 ± 0.0019	0.351 ± 0.033	0.458 ± 0.0063
FILFSEMFASSV	0.26 ± 0.0085	0.132 ± 0.021	0.175 ± 0.0083	0.265 ± 0.026	0.149 ± 0.02	0.28 ± 0.015	0.255 ± 0.028	0.137 ± 0.021
FLCIFFFFLISF	0.27 ± 0.011	0.25 ± 0.012	0.194 ± 0.0028	0.261 ± 0.027	0.32 ± 0.004	0.346 ± 0.023	0.235 ± 0.035	0.297 ± 0.02
FLCLLSLFFLDF	0.478 ± 0.052	0.532 ± 0.044	0.572 ± 0.024	0.461 ± 0.03	0.626 ± 0.036	0.462 ± 0.034	0.437 ± 0.011	0.575 ± 0.015
FLFCACIRVFSY	0.193 ± 0.0046	0.0501 ± 0.0013	0.17 ± 0.019	0.144 ± 0.025	0.228 ± 0.0087	0.125 ± 0.0033	0.133 ± 0.014	0.195 ± 0.02
FLFSSLFCFLFL	0.433 ± 0.01	0.461 ± 0.035	0.428 ± 0.0099	0.474 ± 0.021	0.565 ± 0.029	0.571 ± 0.018	0.46 ± 0.018	0.527 ± 0.0061
FLLLVFGLLIDS	0.338 ± 0.016	0.183 ± 0.004	–	0.246 ± 0.067	0.413 ± 0.022	0.188 ± 0.017	0.222 ± 0.03	0.379 ± 0.11
FLLYRFSLVGCF	0.172 ± 0.026	0.0567 ± 0.0082	0.108 ± 0.02	0.123 ± 0.031	0.194 ± 0.011	0.0828 ± 0.021	0.108 ± 0.032	0.189 ± 0.011
FLLYVITYRSET	0.335 ± 0.046	0.151 ± 0.0098	0.304 ± 0.046	0.21 ± 0.03	0.442 ± 0.047	0.161 ± 0.0042	0.225 ± 0.025	0.378 ± 0.038
FLPLLFFFFFRF	0.485 ± 0.008	0.377 ± 0.0075	0.292 ± 0.0066	0.391 ± 0.037	0.4846 ± 0.0032	0.569 ± 0.012	0.403 ± 0.022	0.479 ± 0.023
FLPSLSLPLLLF	0.4318 ± 0.0012	0.555 ± 0.0068	0.549 ± 0.02	0.425 ± 0.035	0.573 ± 0.015	0.376 ± 0.036	0.346 ± 0.017	0.479 ± 0.018
FLSLVIVLRWFL	0.347 ± 0.042	0.278 ± 0.048	0.303 ± 0.045	0.255 ± 0.022	0.381 ± 0.01	0.298 ± 0.021	0.242 ± 0.024	0.346 ± 0.02
FLWAVSLCRSLV	0.312 ± 0.029	0.607 ± 0.029	0.655 ± 0.022	0.548 ± 0.035	0.662 ± 0.015	0.178 ± 0.017	0.218 ± 0.026	0.385 ± 0.014
FMRKLVVLVVLG	0.347 ± 0.089	0.257 ± 0.029	0.307 ± 0.013	0.222 ± 0.031	0.4342 ± 0.0023	0.1923 ± 0.0019	0.206 ± 0.028	0.417 ± 0.046
FMVYRIHSSAVM	0.158 ± 0.0045	0.127 ± 0.017	0.172 ± 0.014	0.251 ± 0.06	0.149 ± 0.006	0.265 ± 0.028	0.257 ± 0.038	0.14 ± 0.014
FPGPPSPPPSYF	0.706 ± 0.011	0.699 ± 0.048	0.776 ± 0.001	0.639 ± 0.01	0.766 ± 0.0078	0.6435 ± 0.0011	0.6466 ± 0.0022	0.7451 ± 0.0065
